Data from PMC9537594.
Like-named read-outs stand apart in the source and are kept apart here.

Legend:
[1] = biological target: WT CA nanotubes (pre-formed tubular assemblies of wild-type HIV-1 CA, hexameric lattices) (HIV-1); experiment: co-sedimentation; recombinant GST proteins added to pre-formed WT CA nanotubes, 30 min at 4 °C, 21,000 g for 5 min, pellets washed three times; SDS-PAGE or immunoblot; conditions: scale: GST-CPSF6(LCR-FG-LCR) molecules per CA hexamer
[2] = biological target: isolated native HIV-1 cores (HIV-1); experiment: pull-down
[3] = biological target: isolated native HIV-1 cores (HIV-1); experiment: pull-down; remark: listed apart in the source
[4] = biological target: Cross-linked His-CAhex: disulfide-stabilized hexamer of 6-His-CA(A14C/E45C/W184A/M185A) (HIV-1); experiment: SPR; Reichert 4-SPR; cross-linked His-CAhex immobilised on an NTA chip via the C-terminal His-tag; peptides 3.9 μM to 2 mM; 0.01 M HEPES pH 7.4, 0.15 M NaCl, 0.05% v/v Surfactant P20; simple kinetic model

## GST-CPSF6_(261-358)(LCR-FG-LCR) (from UniProt Q16630-2 261-358) (domain or fragment)
[1]
  stoichiometry N: 2.4

## GST-CPSF6261-358(LCR-FG-LCR) (domain or fragment)
[2]
  Kd: 0.89 µM
[3]
  Kd: 0.81 µM

## NUP153_(1409-1423) 15-mer FG peptide (from UniProt P49790 1409-1423)
[4]
  Kd: 131 µM
